This is an account of results in the domain aggregation screens of Martell et al. (2025).

A short description of the series: soluble fraction after stress (log2 fold change); higher = more stays soluble; pooled small domains, quantitative proteomics. Conditions: stress: pH 4. The procedure, abridged: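 Values are log2 fold changes, and higher ones mean more of the domain stayed soluble. Each fold change reflects the soluble amount of a domain after acid stress and is taken as a measure of aggregation propensity. The stress was pH 4, applied to pooled custom libraries of small protein domains analysed by high-throughput quantitative proteomics.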
With “HMLKDQSIAQLEKNLDDLKGLMRKMFGSSDVPKITKMISDIESSLANFNQSKANKLIVQTTNYISSKL”, the “soluble fraction (log2)” value was -0.0978.
With “HMLKEDSAYELGLRIFDQALNDYGTSFIDLKEDEYKKVLSIYGYSNPRQLIINIGLGNVIPHLLARDITE”, the “soluble fraction (log2)” value is -1.17.
Consider “HMLKEGIKEKINQLQVYADKNDNIIWYDRVVDILSDKDDSVTDEMIEAAIRTLEEAGISVERKQ”, for which the “soluble fraction (log2)” value is -1.04.
The result for “HMLKEGQYSPNHFHWHKMEDIINRGGGTLLIRVYNSLPDEEIDRESDVTVHMDGVTRTVPAGTQLRLE” reads -0.345; that for “HMLKETGVITASVLNVREDIGTSSNIVAQLKKGMEVNILESRAIAGSETWYRIDAGSIKGWIFGDYI”, -2.29.
The same measure for “HMLKFGLSQRELQILALLPTDEPLSILAKSLFISESTLKTHLTHIYRKLGVKNRLQAINVARKAGLLK”: -0.502; for “HMLKHSKQRDAIEQFLATRYDHPTAETVYMNLREEYPKLSLATVYRNLSLLAELGNIQKIPTGNGPDRFDG”: 0.22; for “HMLKIAENIYQRRKEKNITQEELADFMMVTKASVSKWETGQSYPDILLLPKLATFFNVTVDELIGYEPQ”: -1.07.
As for “HMLKIVRSREEVESRLYTIYGNVKGRRLYNFYLSLIIDGLDIVKARTSKNVYYTNIRNLKNAGIDFSQKIN”, the “soluble fraction (log2)” value was -0.0641.
On to “HMLKPKDLHLGDSVRVLSLNLKGTVSSLPDTKGFLFVQMGIMRSKLHISDLQLIDEPVITAP”, for which the “soluble fraction (log2)” value was -0.314.
Consider “HMLLFSVADIVKRSKRILSFKTDAELAAYFGVSRSTLSNWIARNSIDFPLLLSKMKDVDYTWLILGKGTPG”, for which the “soluble fraction (log2)” value is -0.207.
Consider “HMLLLHINQMGVTEFSQLELNHVRSWLANLQIKGAARSSITRRVVSVRAFTYWGAKNGWLASDIGRDLVAP”, for which the “soluble fraction (log2)” value was -0.275.
In the case of “HMLLRVGGLVKDGSVRTDNDLGIKFIIEDNLAEVSVLYNGILPDLFREGQGVIAEGKFIDNIFIANEIVA”, the “soluble fraction (log2)” value is -1.13.
In the case of “HMLLSHTAQREGELLTFLRGELALSSGLVKRLKWQNAFFLDGAPVHTNARVKPGQEITVRIEE”, the “soluble fraction (log2)” value was -1.09.
Take “HMLLTEETLPQLKQIVDEFPYFQIARMLYLKNLAVLNDIRFSVELKKMSIYVPDRRKLFTLIEGE”: the “soluble fraction (log2)” value was -0.69.
The result for “HMLLTLPEDIITMVRQGTLSAGHARVLAGLESDEMKMTLARQTITNEWSVRQLENAVALMRKS” reads -0.858; that for “HMLLTPLEETRLVIEEIVIPQKLTIDLLPRSSAIRKLQHELITHYQLRGTSVGNEPNRRLRIYP”, -0.633; that for “HMLMNADVLVKYQEDHWIVISEKASQASDTFDKKEQAVERAKEIAKNKNSSVKVYKQDGTLQDTFDYS”, 0.306.
The same measure for “HMLMSDEENAEFTKLYRQLVFKLHPDLNPNQTKDEENLWHKVQMAYKGGDLEEMRSLAIILDAQ”: -0.547; for “HMLMTGSLQTKHGKYYVVVRIPDGLGNTKAKWINTGIPTDGNNKRKAQQRRIEILTELEENKD”: 0.168.
As to “HMLMYAQDEKEEASNNIPYRLLHMSFTKEQKAELQRAMDVRVPKDIILSYFYPDTPVARMMEIRRQYESA”, the “soluble fraction (log2)” value stood at 0.12.
For the sequence “HMLNDKLQTLFSLFPAVDKDLKKKGVTRQILWEQYKRNHPDGVGRSQFNYYYAQWKDQVNPT”, the “soluble fraction (log2)” value was determined as 0.22.
Regarding “HMLNDMYAVMEIRGQGGELIAKLINQDGSPFYVKKGTTLQSGHVIDEITTTYVRAEKAGAKDYLYF”, the “soluble fraction (log2)” value was -1.65.
The same measure for “HMLNDTGAIRAAVEEVLAANEKSVNEYKGGKTQAFQYLIGQSMRALRGKAPAQEVTKLLKELLG”: -0.0483; for “HMLNQIGVSQKEFDQIHTAIKIALKTSSLTPTGITEKLPKFPPEKTADILRWMADNKEVLLNSEEKYELKT”: 0.0247; for “HMLPAGAAAPLEDGSAPEGYTVKGNADSGLYHEPDGRWYDATVAEFWFKTAADAEAAGFRKAGS”: -0.741.
Turning to “HMLPDGEAFVKVNTSLNIRTGPWGQIVGWFHNNDKVKIIGRDGDWYKISHNGQTRYIHSRYVSSSR”, the “soluble fraction (log2)” value was -0.0297.
The same measure for “HMLPDHAPITMRQLAMLHVAKNKLDLTDEDYRSLLLLYGGVESSKQLNQEGLRRVLDRFKELGFEP”: -0.258.
The result for “HMLPDLLNGRVIPSPEKVIRARLNRGVWELLVQWVGRAPSDATWENLLEFKSAYPSVQLEDALF” reads -1.1; that for “HMLPDLQKAIDTFLYEVDSRINTSFEELIDKLNSKEEAVAFFLALLEAVRWGFIKAEQESNSINIKK”, -1.49; that for “HMLPDSQLMKEATAWFMRQAADDFSGAERRRLDAWRAQSPAHARAYHQVQALWNAPELQQAAAR”, -0.0106.
The same measure for “HMLPEGIENGDVLTRTDALDYRKWLVTGNQKRIFASTASFYGENFNYSEVKAVSDRVLDAIPDGEPV”: -0.549; for “HMLPFGHTRLEDGTIQEIPEQIALARKVAEMYKAGFPVMQISIKTEGLLTPRQIYGLMNHWGVKR”: -0.412; for “HMLPIKLDLEIGENVRVVSGPLENFVGSVVSFDTDQQKVKLVVEMFGRKTPVELDFIEVQKLR”: -1.47.
As for “HMLPIMDRLITAGISINTAKKWVDKFGDKRIKQNLAYSLAKQKEGKVKTNFVGYLAKAIEEDWGSGWE”, the “soluble fraction (log2)” value is at least 0.43.
The same measure for “HMLPKAERREQLMAVARSVFAEQGYHTTSMEIIAETAGVSKPLLYQHFPSKLDLYLALLDAGID”: -1.1; for “HMLPKILVMDGKVNKNALTTLGKDEEWVKKVLRNHNIHSIKDVLLALYDTKGKFQYQLYDDYEK”: -0.019; for “HMLPKNITNTIDHWIQKFPQGKQRSAIIAALHAVQHHNKGFLTNDLLNQVADYIDVPKMNVYEVATFYSM”: 0.22.
The same measure for “HMLPLIEVPAVTGKYLTKAKSALKDAGLDTGDIKRVEHEEHGENYVLKQDPPAGTKVPFGTTVSLTVVAP”: 0.15; for “HMLPLLEYLDPFTGKKTYTYLNPDTQHPIFTYYSYQDDKTGRTAYSYIDPLTGKAVNSDEPPMDILYD”: -1.34; for “HMLPPHMEVRAIMILDKRPMALMNIEGEGDGLIVSPGYRFGDGRGRVVSITQTKVVVLWAGTSMEL”: -0.383.
The same measure for “HMLPQYELIKQYLRHQIETGEWPIGYRTPSEPKLAEQFSVSRMTARRALQELADQGLLSRTAGSGTFVAKP”: 0.0856.
Take “HMLPVQGEEVAPGLYKFDFPFLADKRVWEKTINAFKAEHPELKVNYIYTGPDELNSKKKTHVLVYVFTES”: the “soluble fraction (log2)” value was -0.122.
Turning to “HMLPVYSITEAAERLDIPASTIKWYADRFASYISPSKGKGRKRFTPEDLATLQKIHELSQDHTTEEAEAML”, the “soluble fraction (log2)” value is -1.16.
The same measure for “HMLPYKGTVAVSLAVLHKAVGVGTADMLKAVGTLRQGTEVTVTGRNGPFAQLKNGLWMKESFLE”: 0.193.
For the sequence “HMLQADALADPVGWALRTLGFDLEAGTPERSAIQRSFRQSLIEAHPDHGGADDEAAQRIADITEARRILLA”, the “soluble fraction (log2)” value was -0.858.
The same measure for “HMLQFTYPRLHTKKSWYVDFMSFDPGAGKMRRKKFMLDGIPKITDRRKRAAELIEVLTKQLRAGWSPWVNV”: 0.403; for “HMLQIADEYLDRLQALFEDVRDNHFAIGDLLVELVDMHDSRRVDVINYIAGRLAISPTTLYDYENTARR”: -0.966; for “HMLQLDATDRALIVATQGGLPLVPRPYQVVGEQLGISGEEVVARLRALLDAGVIRRIGAVPN”: 0.327.
The result for “HMLQLKEPLKKVYERLTPVPKTAETILAELWEKGEYLDIAALHRALMELELSGYVRQSSPGYFGTSA” reads 0.00945; that for “HMLQQKESAALGERLLNQALATLKVEPDAISWDRWEALAKEYGAKSQLDILADIGLGKRLSFVVAQALTKV”, -0.698; that for “HMLRDMIIQSYRYYTDKERNPRQVWNRMEADAFWEIIRDYEGYNGDGYVHTKIIPEMEALTVIEMDN”, -1.62.
For the sequence “HMLRISLAAARVNAEMTQEDVAREMHVSKNTVVNWEKGKSEPTISQSRELSKLYNMPLEYIFYL”, the “soluble fraction (log2)” value came to 0.258.
The same measure for “HMLRKTTDLDAIRSVAKDVIDQNPKAVEDYVGGKESAIGFLLGQVMRATKGTADANTVRELLKEILDS”: -0.234; for “HMLRPMVAILNKNISKGQVISEDYIKFEVRPERQIHGAYHDISEVLGRKTKNNIAAGTILKVRHLDT”: 0.375; for “HMLRQVSDSNALETAVKKVLDANPEEVERYKSGNKKLISFFVGQTMKATKGAGNPKEINSILAKLL”: 0.201.
The result for “HMLSAEAAAARTAISTLSEDQQRVLGLSIQRGLVHEQIARATGLPLGTVKTHIRRGLIKVREALEAQAAG” reads 0.0049; that for “HMLSAGETYTLGYLKASDGILFTAADGSEQTVMQRVQVRLYDNGDGTYTARLADDIAYSAVVTEDMIDK”, 0.256.
Turning to “HMLSDAAAMESIAYEAIRQMEPDTYYIIGAGTTTRGIMEVLGLKNTLIGVDLIRNKELVANDLGGKELLSY”, the “soluble fraction (log2)” value was -0.796.
As for “HMLSDEDMMELAIIENLQRENLNPIEEARAYESLIDKGFTHTEIADKMGKSRPYISNSIRLLSL”, the “soluble fraction (log2)” value is -1.38.
With “HMLSDFHLNHDSIVNHTVQKKETIFSLSKKYGLSINEIIKANPGIQIDKLKRRSILIIPLRKK”, the “soluble fraction (log2)” value was -0.12.
In the case of “HMLSDLTPGDLVVHATHGIGRFLGIRKLELEGMTKDYITIQYRGNENLYVPVTQMDLVSRYI”, the “soluble fraction (log2)” value is -0.975.
The result for “HMLSGGEVKRIEIATILARKSGLMIFDEPEAGIDLWSFARLVETFEDIRSNTSGSLVIISHQ” reads -0.0926.
For the sequence “HMLSKEERRSQLLDLGVRLLSTRSLDELSIDLLAEEAGISRGLLYHYFGNKHDFHEAVVRRAADDLI”, the “soluble fraction (log2)” value is -1.12.
The same measure for “HMLSLKAQVYEIIRQKILQQEYALGEKINIDTVADELKISNSPIREALMMLSQDGLIEMVPNNGARVI”: -1.27.
With “HMLSLSDIINDVMERLTREKNLTFDELLGEKRERRRIVYTFLALLELIRLKMIKAYQTAAFGVIRIFPR”, the “soluble fraction (log2)” value was -1.15.
The result for “HMLSLTSRQQEIFDLIKGHIKKTGMPPTRSEIALHFGFRSANSAEEHLRALARKGFIELIPGTSRGIKLIE” reads at least 0.43.
The same measure for “HMLSPPWYEYHRKVQAMFGRDPEVHIKDLDDLGDGKFSYMILVYNKEKAEAIKAILPQKVEMGNVTIETAI”: at least 0.43; for “HMLSRNEWLVMEALWERPSTLMELVRQLGQEPPGWAKSTTATMVRRMEEKGLIRHEAGSKARVYHP”: -0.325.
